Results: article PMC12259648 (Frontiers in Immunology, 2025)
Where a chain is given by its changes, count along the chain named.

B1: 212579 E38HS, G62HS (antibody, V domains shown)
VH: EVQLVESGGGLVQPGGSLRLSCAASGFTFSSYSMTWVRQAPGKGLEWISYISSSSSTIYYADSVKGRFTISRDNAKNSLYLQMNSLRAEDTAVYYCARDLRWGVMDNYYYHGMDVWGQGTTVTVSS
VL: EIVLTQSPGTLSLSPGERATLSCRASQSISSSYLTWYQQKPGQAPRLLIYGASSRATGIPDRFSGSGSGTDFTLTISRLEPEDFAVYYCQQYVSSLITFGQGTRLEIK
notes: numbers count on: IMGT numbering; as the VL of m2; IgG1, kappa; also called E38HS G62HS substituted antibody; source: Expi293F, transfected, purified (Protein A magnetic beads)
B2: inferred unmutated common ancestor (UCA) of antibody 212579 (antibody, V domains shown)
VH: B1 VH with S33E, T35N, I48V, S55G, H111Y
VL: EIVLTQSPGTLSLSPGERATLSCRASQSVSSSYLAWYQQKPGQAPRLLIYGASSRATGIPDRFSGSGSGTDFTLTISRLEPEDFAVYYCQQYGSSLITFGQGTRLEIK
notes: equals the inferred UCA heavy chain variable domain (GenBank PV255645, PV255646 for the two chains); numbers count on: IMGT numbering; equals the inferred UCA light chain variable domain (GenBank PV255645, PV255646 for the two chains); IgG1, kappa; also called inferred UCA; source: Expi293F, transfected, purified (Protein A magnetic beads)

Target: T1, Phl p 5.0101 (timothy grass)
T1 construct: Phl p 5.0101, major group 5 pollen allergen of timothy grass; The SPR methods say only 'Phl p 5 antigen'; also called major timothy grass pollen allergen Phl p 5; group 5 allergen; source: bought: Biomay, Vienna, Austria
T1 chain: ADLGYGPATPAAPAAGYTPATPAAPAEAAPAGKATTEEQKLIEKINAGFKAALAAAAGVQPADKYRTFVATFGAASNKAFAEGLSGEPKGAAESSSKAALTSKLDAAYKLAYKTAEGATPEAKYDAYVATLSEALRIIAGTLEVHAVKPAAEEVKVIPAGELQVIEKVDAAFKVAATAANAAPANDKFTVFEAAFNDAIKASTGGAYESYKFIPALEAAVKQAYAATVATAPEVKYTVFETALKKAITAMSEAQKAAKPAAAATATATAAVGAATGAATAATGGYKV
Assay: SPR; Biacore 1K+; purified IgG captured (about 100 RU) on anti-human IgG (Fc) on a CM5 chip; Phl p 5 injected at 1.875-60 nM, 25 uL/min, 120 s, 1360 s dissociation; PBS with 0.02% Tween 20; 1:1 Langmuir model
Conditions: both partners purified

Binder | Kd [µM] | koff [s⁻¹] | kon [M⁻¹ s⁻¹]
B1 | 0.0196 | 0.00262 | 130000
B2 | 0.0085 | 0.00051 | 60000
